According to patent US20230011916A1 (BEIGENE, published 2023):
Residue numbers refer to the chain shown, from its start. Numbers in names are those of the source.

T1: full-length human OX40 expressed on HuT78 cells (HuT78/OX40) (human, UniProt P43489 29-277)
T1 sequence: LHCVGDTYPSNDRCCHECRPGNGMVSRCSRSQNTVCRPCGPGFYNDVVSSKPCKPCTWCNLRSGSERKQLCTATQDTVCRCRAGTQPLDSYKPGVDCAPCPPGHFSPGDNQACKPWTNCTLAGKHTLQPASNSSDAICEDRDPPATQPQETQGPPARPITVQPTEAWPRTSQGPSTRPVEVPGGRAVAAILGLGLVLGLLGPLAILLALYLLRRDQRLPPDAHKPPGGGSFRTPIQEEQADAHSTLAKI

T2: recombinant OX40 protein with a His tag (Cat: 10481-H08H, Sino Biological) (UniProt P43489 29-216)
T2 construct: Bought protein; also called OX40-His (bought); not shown: His tag
T2 sequence (looked up): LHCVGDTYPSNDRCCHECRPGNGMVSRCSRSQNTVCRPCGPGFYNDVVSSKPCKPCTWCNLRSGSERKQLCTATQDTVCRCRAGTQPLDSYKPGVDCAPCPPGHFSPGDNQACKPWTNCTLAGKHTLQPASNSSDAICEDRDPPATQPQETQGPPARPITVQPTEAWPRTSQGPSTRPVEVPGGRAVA

B1: 445-2 (antibody, V domains shown)
VH: QVQLVQSGAEVKKPGSSVKVSCKASGYKFTSYIIHWVRQAPGQGLEWMGYINPYNEGTRYAQKFQGRVTLTADKSTSTAYMELSSLRSEDTAVYYCARGYYGSSYAMDYWGQGTTVTVSS
VL: DIQMTQSPSSLSASVGDRVTITCSASQGISNYLNWYQQKPGKAIKLLIYDASTLYSGVPSRFSGSGSGTDFTLTISSLQPEDFATYYCQQYSKLPYTFGGGTKVEIK
B2: 445-3 (antibody, V domains shown)
VH: B1 VH with A61N
VL: B1 VL with S24R, G41D, K42G
B3: 445-1 (antibody, V domains shown)
VH: B1 VH with E56D, A61N, A72S
VL: B1 VL with A51T, F71Y
B4: 445-3 IgG4 (antibody, V domains shown)
VH: B1 VH with A61N
VL: B1 VL with S24R, G41D, K42G
B5: ch445 (antibody, V domains shown)
VH: EVQLQQSGPELVKPGASVKMSCKASGYKFTSYIIHWVKQKPGQGLEWIGYINPYNDGTRYNEKFKGKATLTSDKSSSTAYMEYSSLTSEDSAVYYCARGYYGSSYAMDYWGQGTSVTVSS
VL: DIQMTQTTSSLSASLGDRVTISCSASQGISNYLNWYQQKPDGTIKLLIYDTSTLYSGVPSRFSGSGSGTDYFLTISNLEPEDIATYYCQQYSKLPYTFGGGTKLEKK
notes: also called Mu445 variable domains fused to human IgG1wt/kappa constant regions
B6: 445-2(M48I)-1 (antibody, human IgG1, V domains shown)
VH: B1 VH with M48I, E56D, A61N, A72S
VL: B1 VL with A51T, F71Y
B7: 445-1-2(S24G) (antibody, human IgG1, V domains shown)
VH: B1 VH with E56D, A61N, A72S
VL: B1 VL with S24G, A51T, F71Y
B8: 445-1-2(S10T/E81D/D70E) (antibody, human IgG1, V domains shown)
VH: B1 VH with E56D, A61N, A72S
VL: B1 VL with S10T, A51T, D70E, F71Y, E81D
B9: 445-3(A61N-K28R)-3 (antibody, V domains shown)
VH: B1 VH with K28R, A61N
VL: B1 VL with S24R, G41D, K42G
B10: 445-3(A61N-K63R)-3 (antibody, V domains shown)
VH: B1 VH with A61N, K63R
VL: B1 VL with S24R, G41D, K42G
B11: 445-3-3(G41D-K42G-S24R-K93R) (antibody, V domains shown)
VH: B1 VH with A61N
VL: B1 VL with S24R, G41D, K42G, K93R
B12: 445-3(Q62E)-3(S24R) (antibody, V domains shown)
VH: B1 VH with Q62E
VL: B1 VL with S24R
B13: 445-3(Q62E/Q65K)-3(S24R) (antibody, V domains shown)
VH: B1 VH with Q62E, Q65K
VL: B1 VL with S24R
B14: 445-3(T30S)-3(S24R) (antibody, V domains shown)
VH: B1 VH with T30S
VL: B1 VL with S24R

Target: T1, full-length human OX40 expressed on …
Test: flow cytometry on live HuT78/OX40 cells; Mean
Procedure: (§1) To evaluate the binding activity of anti-OX40 antibodies to bind OX40 expressed on the surface of live cells, HuT78 cells were transfected with human OX40 as described in Example 1 to create an OX40 expressing line. Live HuT78/OX40 cells were seeded in 96-well plate and were incubated with a serial dilution of various anti-OX40 antibodies. Goat anti-Human IgG-FITC (Cat: A0556, Beyotime) was used as a secondary antibody to detect antibody binding to the cell surface. EC₅₀ values for dose-dependent binding to human OX40 were determined by fitting the dose-response data to the four-parameter logistic model with GraphPad Prism.

Binder | EC50 [µg/mL] | Top(MFI)
B1 | 0.343 | 620
B2 | 0.328 | 910
B3 | 0.285 | 525
B4 | 0.263 | 892
B5 | 0.299 | 725

Target: T2, recombinant OX40 protein with a His tag …
Test: SPR, BIAcore T-200; antibody captured by anti-human IgG, OX40-His flowed; Test 2
Description: (§2) The anti-OX40 antibodies were characterized for their binding kinetics and affinity by SPR assays using BIAcore™ T-200 (GE Life Sciences). Briefly, anti-human IgG antibody was immobilized on an activated CM5 biosensorchip (Cat: BR100530, GE Life Sciences). An antibody with human IgG Fc region was flowed over the chip surface and captured by anti-human IgG antibody. Then a serial dilution of recombinant OX40 protein with a His tag (Cat: 10481-H08H, Sino Biological) was flowed over the chip surface and changes in surface plasmon resonance signals were analyzed to calculate the association rates (ka) and dissociation rates (kd) by using the one-to-one Langmuir binding model (BIA Evaluation Software, GE Life Sciences). The equilibrium dissociation constant (KD) was calculated as the ratio kd/ka.

Binder | Ka [M⁻¹] | Kd [nM] | koff [s⁻¹] | kon [M⁻¹ s⁻¹]
B1 | 7.8e+07 | 12.8 | 0.00264 | 206000
B2 | 1.03e+08 | 9.77 |  | 
B3 | 6.1e+07 | 16.4 | 0.00389 | 237000
B5 | 1.59e+08 | 6.3 | 0.00167 | 265000

Target: T2, recombinant OX40 protein with a His tag …
Test: SPR, BIAcore T-200; antibody captured by anti-human IgG, OX40-His flowed; Mean
Description: as §2

Binder | Ka [M⁻¹] | Kd [nM]
B1 | 7.5e+07 | 13.5
B2 | 1.06e+08 | 9.47
B3 | 5.9e+07 | 17.1
B4 | 1e+08 | 10
B5 | 1.41e+08 | 7.28

Target: T3, cynomolgus OX40 expressed on HuT78 cells (HuT78/cynoOX40) (cynomolgus monkey)
T3 construct: whole, on cells; also called cynomolgus monkey OX40
Test: flow cytometry on HuT78/cynoOX40 cells
Procedure: (§3) Goat anti-Human IgG-FITC (Cat: A0556, Beyotime) was used as a secondary antibody for detection. EC₅₀ values for dose-dependent binding to human and cynomolgus monkey native OX40s were determined by fitting the dose-response data to the four-parameter logistic model with GraphPad Prism.

Binder | EC50 [µg/mL]
B2 | 0.171

Target: T2, recombinant OX40 protein with a His tag …
Test: SPR, BIAcore T-200; antibody captured by anti-human IgG, OX40-His flowed; Test 1
Description: as §2

Binder | Ka [M⁻¹] | Kd [nM] | koff [s⁻¹] | kon [M⁻¹ s⁻¹]
B1 | 7.1e+07 | 14.2 | 0.0039 | 276000
B2 | 1.09e+08 | 9.16 |  | 
B3 | 5.6e+07 | 17.8 | 0.00277 | 156000
B4 | 1e+08 | 10 |  | 
B5 | 1.22e+08 | 8.26 | 0.00143 | 174000

Target: T1, full-length human OX40 expressed on …
Test: flow cytometry on live HuT78/OX40 cells; Test 1
Procedure: as §1

Binder | EC50 [µg/mL]
B1 | 0.323
B2 | 0.337
B3 | 0.293
B4 | 0.263
B5 | 0.321

Target: T1, full-length human OX40 expressed on …
Test: flow cytometry on HuT78/OX40 cells
Procedure: as §3

Binder | EC50 [µg/mL]
B2 | 0.174

Target: T1, full-length human OX40 expressed on …
Test: FACS; cells not named on the sheet, HuT78/OX40 cells as in Example 5

Binder | EC50 [µg/mL] | Top(MFI)
B6 | 0.353 | 480
B3 | 0.336 | 500
B7 | 0.307 | 470
B8 | 0.28 | 510

Target: T2, recombinant OX40 protein with a His tag …
Test: Biacore (SPR); antigen not named on the sheet, OX40-His as in Example 4

Binder | Kd [nM] | koff [s⁻¹] | kon [M⁻¹ s⁻¹]
B9 | 7.35 | 0.00115 | 157000
B10 | 9.65 | 0.00155 | 161000
B11 | 7.9 | 0.00168 | 212000
B2 | 8.51 |  | 
B12 | 11.7 | 0.00227 | 194000
B13 | 12.4 | 0.00232 | 187000
B14 | 13.1 | 0.00381 | 291000

Target: T2, recombinant OX40 protein with a His tag …
Test: as above
Remark: another data set of the same source

Binder | Kd [nM] | koff [s⁻¹] | kon [M⁻¹ s⁻¹]
B6 | 15.5 | 0.00356 | 230000
B7 | 16.2 | 0.0036 | 222000
B8 | 14.9 | 0.0034 | 228000

Target: T1, full-length human OX40 expressed on …
Test: FACS; cells not named on the sheet, HuT78/OX40 cells as in Example 5
Remark: another data set of the same source

Binder | EC50 [µg/mL] | Top(MFI)
B1 | 0.397 | 760
B9 | 0.369 | 1080
B10 | 0.483 | 1100
B11 | 0.337 | 1050
B2 | 0.462 | 990
B12 | 0.363 | 760
B13 | 0.318 | 790
B14 | 0.405 | 800

Target: T1, full-length human OX40 expressed on …
Test: flow cytometry on live HuT78/OX40 cells; Test 2
Procedure: as §1

Binder | EC50 [µg/mL]
B1 | 0.363
B2 | 0.319
B3 | 0.278
B5 | 0.277
